This is an account of results in the supplement of paper PMC9170038.

The test system of the data set is MS2 coat protein. The data set is described as follows: apparent KD of MS2 coat protein; designed switch direction (-1 OFF switch, 1 ON switch): -1; higher = weaker reporter binding. In a few lines: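 The apparent KD reported per design is the median over clusters of curve fits to normalised cluster fluorescence. The RNA switches were transcribed on Illumina chips by stalled E. coli RNA polymerase. SNAP-549-labelled MS2 coat protein was titrated from 0.7 or 1.5 nM, doubling up to 3 µM, in Tris-HCl pH 7.5 buffer containing KCl, MgCl2, BSA, DTT, tRNA and Tween-20, with no input, 200 uM small-molecule ligand, or an oligonucleotide input.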

[1] abbreviates: input ligand: microRNA oligo, concentration not stated.
Where [2] appears, read: Eterna round: R95, input ligand: microRNA oligo, concentration not stated.
[3] abbreviates: Eterna round: R95, input ligand: FMN 200 uM.
Where [4] appears, read: Eterna round: R95, input ligand: none.

In the case of “CCCGUCGAUGUAGGAUAUGCCCGGGUCUCCCGGGCAGAAGGACAUGAGGAUCACCCAUGUUCAUGAGGAUCACCCAUGAAUGGG [Double but mutated MS2] (Eterna round: R96, puzzle: Exclusion NG 1)”, the “apparent KD of MS2 coat protein” value came to 0.0121 µM (input ligand: FMN 200 uM), 0.0121 µM under setting [1] and 0.0166 µM (input ligand: none).

In the case of “CCCGUGUAAGGAUAUCGUUCACUUGGCAAAAGUCGAGUGGACGAGAAGGUACAUGAGGAUCACCCAUGUACGGG [-32.4, -32 kcal, A 28%] (Eterna round: R97, puzzle: Exclusion 4)”, the “apparent KD of MS2 coat protein” value is 0.406 µM (input ligand: FMN 200 uM) and 0.282 µM (input ligand: none).

As for “CCCUCACUUGAGGAUCACCCAAGUCAGGAUAUCUCACCCAUCCUACGGGACGGGUCACAGAGAAGGGACUAAAA [Isdius] (Eterna round: R97, puzzle: Exclusion 1)”, the “apparent KD of MS2 coat protein” value was determined as 0.0373 µM (input ligand: FMN 200 uM) and 0.02 µM (input ligand: none).

As for “CCCUCAUGACGCACAUGAGGAUCACCCAUGUAUAAACCGUCAGAGGAUAUCCGCCGGUCACCGAAGGAGAAGGCUGACCUAAAG [Quinlaan] (Eterna round: R96, puzzle: Exclusion NG 3)”, the “apparent KD of MS2 coat protein” value reads like this: (input ligand: FMN 200 uM) 0.0212 µM; under setting [1], 0.011 µM; (input ligand: none) 0.0182 µM.

Consider “CCCUCGGGAGGAUAUGGGUGUUUUUACAUGAGGAUCACCCAUGUGGAGUAGCAUGUGGGUCCAGAAGGCCCAAGGG [-27.5, -25.8 kcal, 22% A] (Eterna round: R97, puzzle: Exclusion 5)”, for which the “apparent KD of MS2 coat protein” value was found to be 0.873 µM (input ligand: FMN 200 uM) and 0.815 µM (input ligand: none).

In the case of “CCGAACAUAGGAUAUACAUGAGGAUCACCCAUGUAUAUAAAAGGGUGUUCCAACUAAAGUAGAAGGAUGUAAGG [ExFusion 1 - Jieux - Exclusion 3] (Eterna round: R97, puzzle: Exclusion 3)”, the “apparent KD of MS2 coat protein” value runs as follows: (input ligand: FMN 200 uM) 0.0365 µM; (input ligand: none) 0.0406 µM.

For the sequence “CCGAGGCUAGGAUAUUGACGAUAAUACAUGAGGAUCACCCAUGUGAGUCGUGUAUGCGCGCAAGAAGGAGUAAUAA [Tiorreonbi] (puzzle: Exclusion 5)”, the “apparent KD of MS2 coat protein” value under setting [2] was determined as 0.0152 µM.

“CCGCAAAUGAAGGAUAUCGUAUCGGAUACGAUACGAGAAGGUCGAACAUGAGGAUCACCCAUGUGUCCUAGCGG [Fiskers Ex 6 - 41] (puzzle: Exclusion 6)”: the “apparent KD of MS2 coat protein” value was 0.0194 µM under setting [3], 0.0112 µM under setting [2] and 0.0121 µM under setting [4].

For “CCGCUAAGAGCAGGAUAUGAGUAACAUGAGGAUCACCCAUGUGGACCAUGAAACAGUCCACGCAGUCAGAAGGGUUACGUGGCA [Eternabot solution 33] (Eterna round: R96, puzzle: Exclusion NG 2)”, the “apparent KD of MS2 coat protein” value came to 0.0388 µM (input ligand: FMN 200 uM), 0.0231 µM under setting [1] and 0.0343 µM (input ligand: none).

As to “CCGCUGCAAGGAUAUACUUGCGGUGAUGUUCGAGUUCUUCUACUUGAGGAUCACCCAAGUAGAAGGUGCAAAAC [jl-ex2.4.58 ViennaUCT mod] (Eterna round: R97, puzzle: Exclusion 2)”, the “apparent KD of MS2 coat protein” value reads like this: (input ligand: FMN 200 uM) 0.0192 µM; (input ligand: none) 0.0193 µM.

Regarding “CCGCUGCAAGGAUAUACUUGCGGUGGUGUUCGAGUUCUUUUACUUGAGGAUCACCCAAGUAGAAGGUGCAAAAC [jl-ex2.4.54 ViennaUCT mod] (Eterna round: R97, puzzle: Exclusion 2)”, the “apparent KD of MS2 coat protein” value runs as follows: (input ligand: FMN 200 uM) 0.0173 µM; (input ligand: none) 0.0162 µM.

Consider “CCGGAAAUAGAGGAUAUCGUAUCGGAUACGAUACGAGAAGGCUAUACAUGAGGAUCACCCAUGUGUCCUACCGG [Fiskers Ex 6 - 56] (puzzle: Exclusion 6)”, for which, under setting [2], the “apparent KD of MS2 coat protein” value stood at 0.0161 µM.

As for “CCGGAAAUGCAGGAUAUCGUAUCGGAUACGAUACGAGAAGGGUAUACAUGAGGAUCACCCAUGUGUCCUCCCGG [Fiskers Ex 6 - 53] (puzzle: Exclusion 6)”, the “apparent KD of MS2 coat protein” value under setting [2] worked out at 0.028 µM.

For “CCGGAAGUACAGGAUAUCGUAUCGGAAACGAUACGAGAAGGGUAUACAUGAGGAUCACCCAUGUGUCCUACCGG [Fiskers Ex 6 - 27] (puzzle: Exclusion 6)”, under setting [2], the “apparent KD of MS2 coat protein” value was 0.0233 µM.

Consider “CCGGAAGUAGAGGAUAUAGGAGUCGAUAGACUCCUAGAAGGCUAUACAUGAGGAUCACCCAUGUGUCCUACCGG [Fiskers Ex 6 - 68] (puzzle: Exclusion 6)”, for which the “apparent KD of MS2 coat protein” value under setting [2] amounted to 0.0191 µM.

For “CCGGAAUUGAAGGAUAUAGGAGUCGAUAGACACCUAGAAGGUCAGACAUGAGGAUCACCCAUGUGUCCUACCGG [Fiskers Ex 6 - 86] (puzzle: Exclusion 6)”, the “apparent KD of MS2 coat protein” value was 0.0274 µM under setting [3], 0.021 µM under setting [2] and 0.0174 µM under setting [4].

For the sequence “CCGGAUUAGUAGGAUAUAGGAGUCGAUAGACACCUAGAAGGACUAACAUGAGGAUCACCCAUGUGUCCUACCGG [Mod of Eli 19 - Jieux - Exclusion 6] (Eterna round: R97, puzzle: Exclusion 6)”, the “apparent KD of MS2 coat protein” value is 0.039 µM (input ligand: FMN 200 uM) and 0.0167 µM (input ligand: none).

Turning to “CCGGCAUGAGGAUAUCCAUCUGGAUCAGACUAGAUCCUGAUGGAGAAGGCACAUGAGGAUCACCCAUGUUACGG [Eli 4x 4.38] (Eterna round: R97, puzzle: Exclusion 4)”, the “apparent KD of MS2 coat protein” value by setting is: (input ligand: FMN 200 uM) 0.0512 µM; (input ligand: none) 0.173 µM.

Consider “CCGGCUUAGCAGGAUAUAGGAGUCGAUAGACACCUAGAAGGGCUAACAUGAGGAUCACCCAUGUGUCCUACCGG [Fiskers Ex 6 - 100] (puzzle: Exclusion 6)”, for which the “apparent KD of MS2 coat protein” value under setting [3] came to 0.065 µM, the “apparent KD of MS2 coat protein” value under setting [2] is 0.0259 µM and the “apparent KD of MS2 coat protein” value under setting [4] is 0.0307 µM.

“CCGGCUUAGCAGGAUAUAGGAGUCGAUAGACACCUAGAAGGGCUAACAUGAGGAUCACCCAUGUGUCCUACCGG [Mod of Eli 2 - Jieux - Exclusion 6] (Eterna round: R97, puzzle: Exclusion 6)”: the “apparent KD of MS2 coat protein” value runs as follows: (input ligand: FMN 200 uM) 0.102 µM; (input ligand: none) 0.0476 µM.

With “CCGGCUUAGGAGGAUAUAGGAGUCGAAAGACACCUAGAAGGCCUAACAUGAGGAUCACCCAUGUGUCCUACCGG [Mod of Eli 6 - Jieux - Exclusion 6] (Eterna round: R97, puzzle: Exclusion 6)”, the “apparent KD of MS2 coat protein” value reads like this: (input ligand: FMN 200 uM) 0.0784 µM; (input ligand: none) 0.024 µM.

On to “CCGUCACAUGAGGAUCACCCAUGUCAGGAUAUCUCAGUGCAUCCACACGGACGCAUCAAGAGAAGGGACAAAAC [Vinxlusion 6 - Jieux - Exclusion 1] (Eterna round: R97, puzzle: Exclusion 1)”, for which the “apparent KD of MS2 coat protein” value is, setting by setting: (input ligand: FMN 200 uM) 0.0479 µM; (input ligand: none) 0.0348 µM.

In the case of “CCGUGUUUAGGAUAUGCUAUGGAAGUGUUAAUAUUCAUUAGACAUGAGGAUCACCCAUGUAGAAGGAGGCCGCG [Eternabot (L1) Solution 96] (Eterna round: R97, puzzle: Exclusion 2)”, the “apparent KD of MS2 coat protein” value is, setting by setting: (input ligand: FMN 200 uM) 0.34 µM; (input ligand: none) 0.142 µM.

For the sequence “CCGUUAUGAGGAUAUCGCUUGAAAGACAUGAGGAUCACCCAUGUGGGCGCGUCCUCAUGGCGAGAAGGCAUUACGA [Enmaatama] (puzzle: Exclusion 5)”, the “apparent KD of MS2 coat protein” value under setting [3] came to 0.00907 µM, the “apparent KD of MS2 coat protein” value under setting [2] was 0.0131 µM and the “apparent KD of MS2 coat protein” value under setting [4] came out at 0.0126 µM.

For “CCUACUCAGCGAGGAUAUGUAACGGUGACUAGGGACGUCUACAUGAGGAUCACCCAUGUGACUAAGCAGAAGGCGCAGAGCCCA [Learve] (Eterna round: R96, puzzle: Exclusion NG 2)”, the “apparent KD of MS2 coat protein” value worked out at 0.0542 µM (input ligand: FMN 200 uM), 0.0331 µM under setting [1] and 0.0477 µM (input ligand: none).

“CCUCAGUAAGGAUAUCAGCUUAUGGAGUUGGUAAUGAGAGCUGAGAAGGUACAUGAGGAUCACCCAUGUUAGUU [JL Zatite mod 2] (puzzle: Exclusion 4)”: the “apparent KD of MS2 coat protein” value under setting [2] was determined as 0.0254 µM.

Take “CCUCAGUCACAGGAUAUGCUCAUCUAAUGAUGAGCAGAAGGGUGAACAUGAGGAUCACCCAUGUUUACGAGGGU [Omei Ex6 E7] (Eterna round: R97, puzzle: Exclusion 6)”: the “apparent KD of MS2 coat protein” value reads like this: (input ligand: FMN 200 uM) 0.407 µM; (input ligand: none) 0.555 µM.

On to “CCUCCCUGAGGAUAUCCACCCUCAUACAUGAGGAUCACCCAUGUUCAUCCGUGGGUACCCGGAGAAGGCAGAUUUC [Megrez-a] (Eterna round: R97, puzzle: Exclusion 5)”, for which the “apparent KD of MS2 coat protein” value runs as follows: (input ligand: FMN 200 uM) 0.0419 µM; (input ligand: none) 0.0331 µM.

For “CCUCGACAUGAGGAUCACCCAUGUAAGGAUAUGUUGACGAGCCUGAAAAGGCUGGUCAACAGAAGGUAUAUGUA [Exclusion 1 (Mod 1b.1 solution 16 by Eternabot)] (Eterna round: R97, puzzle: Exclusion 1)”, the “apparent KD of MS2 coat protein” value came out at 0.112 µM (input ligand: FMN 200 uM) and 0.0284 µM (input ligand: none).

In the case of “CCUCGUAACUAGGAUAUCCGAAAUAAGCGAGGAGGAGAAGGAGUUACAUGAGGAUCACCCAUGUGAUAUAAAGA [Orisxe] (puzzle: Exclusion 6)”, the “apparent KD of MS2 coat protein” value runs as follows: under setting [3], 0.0469 µM; under setting [2], 0.0155 µM; under setting [4], 0.0174 µM.

As for “CCUCUACAUGAGGAUCACCCAUGUGAGGAUAUCUCGGAGCAGCCACUUAAAGCACUCCAGAGAAGGCACGUGUA [Mavemain] (puzzle: Exclusion 1)”, the “apparent KD of MS2 coat protein” value under setting [2] was 0.0155 µM.

For the sequence “CCUGCACAUGAGGAUCACCCAUGUCAGGAUAUCUCGCCGUGAAGAGCAACACGGUAUUAGAGAAGGGACACGGG [Tixe] (puzzle: Exclusion 1)”, the “apparent KD of MS2 coat protein” value under setting [2] was 0.0207 µM.

With “CCUGCACAUGAGGAUCACCCAUGUCAGGAUAUCUCGCCGUGUGGAGCAACACGGUAUAAGAGAAGGGACACGGG [Gegexeusre] (puzzle: Exclusion 1)”, under setting [2], the “apparent KD of MS2 coat protein” value stood at 0.0228 µM.
